How the values were obtained:
[1] = biological target: peptides 11 and 23 (human); test: pairing sandwich ELISA, biotinylated antibody as detector, target titrated
[2] = biological target: peptides 11 and 23 (human); test: pairing sandwich ELISA, antibody coated as capture, target titrated

EC50 [1]: 0.056 nM | EC50 [2]: 0.904 nM
B1: ACI-8070-942.30D12-Ab1 (antibody, V domains shown)
VH: DVQLVESGGGLVQPGGSRKLSCEASGFTFSSIGMHWVRQAPEKGLEWVAYITSGSSTIYYADTVKGRFTISRDNPKNTLFLQMTSLRSEDTAIYYCAGSGPGTDYWGQGTTLTVSS
VL: DIKMTQSPSSMYASLGERVTITCKASQDINSYLSWFQQKPGKSPKTLIYRANRLVDGVPSRFSGSGSGQDYSLTISSLEYEDMGIYYCLQYDEFPLTFGAGTKLELK

From patent publication US20260043816A1
